Data on 78 variants can be found in the RNAGym collection of RNA variant scans (doi:10.7554/elife.80360).

B1: CPEB3 Ribozyme (parent)
chain: GGGGGCCACAGCAGAAGCGUUCACGUCGCGGCCCCUGUCAGAUUCUGGUGAAUCUGCGAAUUCUGCUGU

The data set covers variants of B1. Put plainly: self-cleavage, relative activity (ratio to wild type); higher = more cleavage; co-transcriptional.
GUGGGCCACAGCAGAAGCGUUAACGUCGCGGCCCCUGUCAGAUUCUGGUGAAUCUGCGAAUUCUGCUGU: the self-cleavage turned out to be 0.0323.

For the variant GUGGGCCACAGCAGAAGCGUUGACGUCGCGGCCCCUGUCAGAUUCUGGUGAAUCUGCGAAUUCUGCUGU, the self-cleavage was determined as 0.039.

With GUGGGCCACAGCAGAAGCGUUUACGUCGCGGCCCCUGUCAGAUUCUGGUGAAUCUGCGAAUUCUGCUGU, the self-cleavage was 0.039.

On to GUGGGCCAGAGCAGAAGCGUUCACGUCGCGGCCCCUGUCAGAUUCUGGUGAAUCUGCGAAUUCUGCUGU, for which the self-cleavage is 0.129.

For GUGGGCCAAAGCAGAAGCGUUCACGUCGCGGCCCCUGUCAGAUUCUGGUGAAUCUGCGAAUUCUGCUGU, the self-cleavage was 0.149.

For GUGGGCCACAGCCGAAGCGUUCACGUCGCGGCCCCUGUCAGAUUCUGGUGAAUCUGCGAAUUCUGCUGU, the self-cleavage was 0.09.

As to GUGGGCCACAGCUGAAGCGUUCACGUCGCGGCCCCUGUCAGAUUCUGGUGAAUCUGCGAAUUCUGCUGU, the self-cleavage worked out at 0.052.

Turning to GUGGGCCACAGCAGAAGCGUUCUCGUCGCGGCCCCUGUCAGAUUCUGGUGAAUCUGCGAAUUCUGCUGU, the self-cleavage is 0.133.

On to GUGGGCCACAGCAGAAGCGUUCCCGUCGCGGCCCCUGUCAGAUUCUGGUGAAUCUGCGAAUUCUGCUGU, for which the self-cleavage came to 0.0692.

GUGGGCCACAGCAGAAGCGUUCACGUGGCGGCCCCUGUCAGAUUCUGGUGAAUCUGCGAAUUCUGCUGU: the self-cleavage worked out at 0.0366.

GUGGGCCACAGCAGAAGCGUUCACGUUGCGGCCCCUGUCAGAUUCUGGUGAAUCUGCGAAUUCUGCUGU: the self-cleavage was found to be 0.0348.

For the variant GUGGGCCACAGCAGAAGCGUUCACGUCGCGGCCCCUGUCAGAUUCUGGUGUAUCUGCGAAUUCUGCUGU, the self-cleavage is 0.0841.

With GUGGGCCACAGCAGAAGCGUUCACGUCGCGGCCCCUGUCAGAUUCUGGUGGAUCUGCGAAUUCUGCUGU, the self-cleavage was found to be 0.127.

In the case of GUGGGCCGCAGCAGAAGCGUUCACGUCGCGGCCCCUGUCAGAUUCUGGUGAAUCUGCGAAUUCUGCUGU, the self-cleavage came out at 0.0691.

As to GUGGGCCCCAGCAGAAGCGUUCACGUCGCGGCCCCUGUCAGAUUCUGGUGAAUCUGCGAAUUCUGCUGU, the self-cleavage is 0.0912.

Consider GUGGGCCUCAGCAGAAGCGUUCACGUCGCGGCCCCUGUCAGAUUCUGGUGAAUCUGCGAAUUCUGCUGU, for which the self-cleavage turned out to be 0.0613.

With GCGGGCCACAGCAGAAGCGUUCACGUCGCGGCCCCUGUCAGAUUCUGGUGAAGCUGCGAAUUCUGCUGU, the self-cleavage was 0.0245.

Consider GUGGGCCACAGCAGAAGCGUUCACGUCGCGGUCCCUGUCAGAUUCUGGUGAAUCUGCGAAUUCUGCUGU, for which the self-cleavage stood at 0.113.

For GUGGGCCACAGCAGAAGCGUUCACGUCGCGGGCCCUGUCAGAUUCUGGUGAAUCUGCGAAUUCUGCUGU, the self-cleavage worked out at 0.0483.

With GUGGGCCACAGGAGAAGCGUUCACGUCGCGGCCCCUGUCAGAUUCUGGUGAAUCUGCGAAUUCUGCUGU, the self-cleavage stood at 0.0633.

As to GUGGGCCACAGAAGAAGCGUUCACGUCGCGGCCCCUGUCAGAUUCUGGUGAAUCUGCGAAUUCUGCUGU, the self-cleavage came to 0.0547.

With GUGGGCCACAGUAGAAGCGUUCACGUCGCGGCCCCUGUCAGAUUCUGGUGAAUCUGCGAAUUCUGCUGU, the self-cleavage is 0.13.

Consider GCGGGCCACAGCAGAAGCGUUCACGUCGCGGCCCCUGUCAGAUUCUGGUGAAUCUGCGAAUGCUGCUGU, for which the self-cleavage came out at 0.0405.

As to GCGGGCCACAGCAGAAGCGUUCACGUCGCGGCCCCUGUCAGAUUCUGGUGAAUCUGCGAAUACUGCUGU, the self-cleavage was found to be 0.0592.

Regarding GUGGGCCACAGCAGAAGGGUUCACGUCGCGGCCCCUGUCAGAUUCUGGUGAAUCUGCGAAUUCUGCUGU, the self-cleavage worked out at 0.00659.

Consider GUGGGCCACAGCAGAAGCGUUCACGUCGCGGCCCCUGUCAGAUUCUGGUGACUCUGCGAAUUCUGCUGU, for which the self-cleavage was found to be 0.0652.

As to GUGGGCCACAGCAGAAGCGUUCACGUCGAGGCCCCUGUCAGAUUCUGGUGAAUCUGCGAAUUCUGCUGU, the self-cleavage is 0.0519.

With GUGGGCCACAGCAGAAGCGUUCACGUCGGGGCCCCUGUCAGAUUCUGGUGAAUCUGCGAAUUCUGCUGU, the self-cleavage came to 0.0442.

GUGGGCCACAGCAGAAGCGUUCACGUCGCGGCCGCUGUCAGAUUCUGGUGAAUCUGCGAAUUCUGCUGU: the self-cleavage was 0.0441.

For GUGGGCCACAGCAGAAGCGUUCACGUCGCGGCCACUGUCAGAUUCUGGUGAAUCUGCGAAUUCUGCUGU, the self-cleavage turned out to be 0.0756.

Take GCGGGCCACAGCAGAAGCGUUCACGUCGCGGCCCCUGUCAGAUUCUGGUGAAUCUGCGAAAUCUGCUGU: the self-cleavage was found to be 0.0082.

For GCGGGCCACAGCAGAAGCGUUCACGUCGCGGCCCCUGUCAGAUUCUGGUGAAUCUGCGAACUCUGCUGU, the self-cleavage was found to be 0.048.

GCGGGCCACAGCAGAAGCGUUCACGUCGCGGCCCCUGUCAGAUUCUGGUGAAUCUGCGAAGUCUGCUGU: the self-cleavage amounted to 0.0289.

Regarding GUGGGCCACAGCAGAAGCGUUCACGUCGCGGCUCCUGUCAGAUUCUGGUGAAUCUGCGAAUUCUGCUGU, the self-cleavage worked out at 0.117.

For the variant GUGGGCCACAGCAGAAGCGUUCACGUCGCGGCGCCUGUCAGAUUCUGGUGAAUCUGCGAAUUCUGCUGU, the self-cleavage turned out to be 0.066.

GUGGGCCACAGCAGAAGCGUUCACGUCGCGGCACCUGUCAGAUUCUGGUGAAUCUGCGAAUUCUGCUGU: the self-cleavage stood at 0.0922.

GUGGGCCACAGCAGAAGCGUUCAAGUCGCGGCCCCUGUCAGAUUCUGGUGAAUCUGCGAAUUCUGCUGU: the self-cleavage came to 0.0672.

As for GUGGGCCACAGCAGAAGCGUUCAUGUCGCGGCCCCUGUCAGAUUCUGGUGAAUCUGCGAAUUCUGCUGU, the self-cleavage worked out at 0.038.

Take GUGGGCCACAGCAGAAGCGUUCAGGUCGCGGCCCCUGUCAGAUUCUGGUGAAUCUGCGAAUUCUGCUGU: the self-cleavage amounted to 0.0682.

In the case of GUGGGCCACAGCAGAAGCGUUCACGUCGCGGCCCCUGUCAGAUUCUGGUGAAUCUGCGAAUUCUGCUGU, the self-cleavage amounted to 0.0871.

GCGGGCCACAGCAGAAGCGUUCACGUCGCGGCCCCUGUCAGAUUCUGGGGAAUCUGCGAAUUCUGCUGU: the self-cleavage is 0.0393.

Consider GCGGGCCACAGCAGAAGCGUUCACGUCGCGGCCCCUGUCAGAUUCUGGAGAAUCUGCGAAUUCUGCUGU, for which the self-cleavage was 0.0745.

Consider GCGGGCCACAGCAGAAGCGUUCACGUCGCGGCCCCUGUCAGAUUCUGGCGAAUCUGCGAAUUCUGCUGU, for which the self-cleavage was 0.0424.

For GCGGGCCACAGCAGAAGCGUUCACGUCGCGGCCCCUGUCAGAUUCUGGUGAAUCCGCGAAUUCUGCUGU, the self-cleavage came to 0.0587.

For GCGGGCCACAGCAGAAGCGUUCACGUCGCGGCCCCUGUCAGAUUCUGGUGAAUCGGCGAAUUCUGCUGU, the self-cleavage turned out to be 0.0548.

As for GUGGGCCACAGCAGAAGCGUUCACGUCGCGGCCCCUGUCUGAUUCUGGUGAAUCUGCGAAUUCUGCUGU, the self-cleavage was determined as 0.0492.

Regarding GUGGGCCACAGCAGAAGCGUUCACGUCGCGGCCCCUGUCCGAUUCUGGUGAAUCUGCGAAUUCUGCUGU, the self-cleavage came to 0.087.

As for GCGGGCCACAGCAGAAGCGUUCACGUCGCGGCCCCUGUCAGAUCCUGGUGAAUCUGCGAAUUCUGCUGU, the self-cleavage stood at 0.0257.

As to GUGGGCCACCGCAGAAGCGUUCACGUCGCGGCCCCUGUCAGAUUCUGGUGAAUCUGCGAAUUCUGCUGU, the self-cleavage is 0.0945.

Consider GCGGGCCACAGCAGAAGCGUUCACGUCGCGGCCCCUGUCAGAAUCUGGUGAAUCUGCGAAUUCUGCUGU, for which the self-cleavage was found to be 0.0772.

Turning to GCGGGCCACAGCAGAAGCGUUCACGUCGCGGCCCCUGUCAGACUCUGGUGAAUCUGCGAAUUCUGCUGU, the self-cleavage was 0.0672.

Turning to GUGGGCAACAGCAGAAGCGUUCACGUCGCGGCCCCUGUCAGAUUCUGGUGAAUCUGCGAAUUCUGCUGU, the self-cleavage amounted to 0.0706.

For the variant GUGGGCGACAGCAGAAGCGUUCACGUCGCGGCCCCUGUCAGAUUCUGGUGAAUCUGCGAAUUCUGCUGU, the self-cleavage came out at 0.0573.

Consider GUGGGCUACAGCAGAAGCGUUCACGUCGCGGCCCCUGUCAGAUUCUGGUGAAUCUGCGAAUUCUGCUGU, for which the self-cleavage was 0.0578.

With GCGGGCCACAGCAGAAGCGUUCACGUCGCGGCCCCUGUCAGAUUCUGGUGAAUCUGCGAAUUCGGCUGU, the self-cleavage was 0.137.

In the case of GCGGGCCACAGCAGAAGCGUUCACGUCGCGGCCCCUGUCAGAUUCUGGUGAAUCUGCGAAUUCCGCUGU, the self-cleavage is 0.0536.

Take GCGGGCCACAGCAGAAGCGUUCACGUCGCGGCCCCUGUCAGAUUCUGGUGAAUCUGCGAAUUCAGCUGU: the self-cleavage amounted to 0.0485.

Regarding GUGGGCCACAGCAGCAGCGUUCACGUCGCGGCCCCUGUCAGAUUCUGGUGAAUCUGCGAAUUCUGCUGU, the self-cleavage was 0.085.

Consider GUGGGCCACAGCAGUAGCGUUCACGUCGCGGCCCCUGUCAGAUUCUGGUGAAUCUGCGAAUUCUGCUGU, for which the self-cleavage amounted to 0.0721.

As for GUGGGCCACAGCAGAAGCGUUCACGUCGCGGCCCCUGUCAGAUUCUGGUGAAUCUGCGUAUUCUGCUGU, the self-cleavage stood at 0.0606.

Consider GUGGGCCACAGCAGAAGCGUUCACGUCGCGGCCCCUGUCAGAUUCUGGUGAAUCUGCGCAUUCUGCUGU, for which the self-cleavage was determined as 0.05.

GCGGGCCACAGCAGAAGCGUUCACGUCGCGGCCCCUGUCAGAUUCUGGUGAAUCUGCGAAUUCUGCUGA: the self-cleavage came out at 0.111.

On to GCGGGCCACAGCAGAAGCGUUCACGUCGCGGCCCCUGUCAGAUUCUGGUGAAUCUGCGAAUUCUGCUGC, for which the self-cleavage was 0.147.

As for GUGGGCCACAGCAGAAGCGUUCACGUCGCGGCCCCUGUCAGAUUCUGGUGAAUCUGCGAUUUCUGCUGU, the self-cleavage was 0.0623.

In the case of GUGGGCCACAGCAGAAGCGUUCACGUCGCGGCCCCUGUCAGAUUCUGGUGAAUCUGCGACUUCUGCUGU, the self-cleavage amounted to 0.0553.

As for GUGGGCCACAGCAGAAGCGUUCACGUCGCGGCCCCUGUCAGUUUCUGGUGAAUCUGCGAAUUCUGCUGU, the self-cleavage was 0.0798.

Take GUGGGCCACAGCAGAAGCGUUCACGUCGCGGCCCCUGUCAGGUUCUGGUGAAUCUGCGAAUUCUGCUGU: the self-cleavage worked out at 0.0791.

For the variant GUGGGCCACAGCAGAAGCGUUCACGUCGCGGCCCCUGUCAGCUUCUGGUGAAUCUGCGAAUUCUGCUGU, the self-cleavage was 0.0887.

GCGGGCCACAGCAGAAGCGUUCACGUCGCGGCCCCUGUCAGAUUCGGGUGAAUCUGCGAAUUCUGCUGU: the self-cleavage was determined as 0.0683.

Take GCGGGCCACAGCAGAAGCGUUCACGUCGCGGCCCCUGUCAGAUUCAGGUGAAUCUGCGAAUUCUGCUGU: the self-cleavage is 0.0309.

Consider GCGGGCCACAGCAGAAGCGUUCACGUCGCGGCCCCUGUCAGAUUCCGGUGAAUCUGCGAAUUCUGCUGU, for which the self-cleavage is 0.0336.

Take GUGGGGCACAGCAGAAGCGUUCACGUCGCGGCCCCUGUCAGAUUCUGGUGAAUCUGCGAAUUCUGCUGU: the self-cleavage was 0.0267.

For GUGGGACACAGCAGAAGCGUUCACGUCGCGGCCCCUGUCAGAUUCUGGUGAAUCUGCGAAUUCUGCUGU, the self-cleavage came out at 0.0497.

As to GUGGGUCACAGCAGAAGCGUUCACGUCGCGGCCCCUGUCAGAUUCUGGUGAAUCUGCGAAUUCUGCUGU, the self-cleavage is 0.0652.

Turning to GUGGGCCACAGCAGAUGCGUUCACGUCGCGGCCCCUGUCAGAUUCUGGUGAAUCUGCGAAUUCUGCUGU, the self-cleavage was determined as 0.0525.

Take GCGGGCCACAGCAGAAGCGUUCACGUCGCGGCCCCUGUCAGAUUCUGGUGAAUCUGCGAAUUCUGCGGU: the self-cleavage turned out to be 0.0872.

On to GCGGGCCACAGCAGAAGCGUUCACGUCGCGGCCCCUGUCAGAUUCUGGUGAAUCUGCGAAUUCUGCCGU, for which the self-cleavage was found to be 0.106.

Take GCGGGCCACAGCAGAAGCGUUCACGUCGCGGCCCCUGUCAGAUUCUGGUGAAUCUGCGAAUUCUGCAGU: the self-cleavage was determined as 0.0227.
